Measured values reported in the supplement of paper PMC11246515.
± gives the standard deviation of the averaged measurements.

Experiment: total protein half-life in vivo (active degradation + dilution); higher = more stable protein
[1] = E. coli NCM3722 delta-clpP delta-lon delta-hslV, growth: N-lim chemostat, doubling time 6 h
[2] = E. coli NCM3722 delta-clpP, growth: N-lim chemostat, doubling time 6 h
[3] = E. coli NCM3722 delta-hslV, growth: N-lim chemostat, doubling time 6 h
[4] = E. coli NCM3722 delta-lon, growth: N-lim chemostat, doubling time 6 h
[5] = E. coli NCM3722 delta-smpB, growth: N-lim chemostat, doubling time 6 h
[6] = wild type E. coli NCM3722, growth: C-lim chemostat, doubling time 3 h
[7] = wild type E. coli NCM3722, growth: C-lim chemostat, doubling time 6 h
[8] = wild type E. coli NCM3722, growth: C-lim chemostat, doubling time 12 h
[9] = wild type E. coli NCM3722, growth: N-lim chemostat, doubling time 6 h
[10] = wild type E. coli NCM3722, growth: N-lim chemostat, doubling time 12 h
[11] = wild type E. coli NCM3722, growth: P-lim chemostat, doubling time 6 h
[12] = wild type E. coli NCM3722, growth: P-lim chemostat, doubling time 12 h

Sequence | total protein half-life in vivo [1] [h] | total protein half-life in vivo [2] [h] | total protein half-life in vivo [3] [h] | total protein half-life in vivo [4] [h] | total protein half-life in vivo [5] [h] | total protein half-life in vivo [6] [h] | total protein half-life in vivo [7] [h] | total protein half-life in vivo [8] [h] | total protein half-life in vivo [9] [h] | total protein half-life in vivo [10] [h] | total protein half-life in vivo [11] [h] | total protein half-life in vivo [12] [h]
MKQATRKPTTPGDILLYEYLEPLDLKINELAELLHVHRNSVSALINNNRKLTTEMAFRLAKVFDTTVDFWLNLQAAVDLWEVENNMRTQEELGRIETVAEYLARREERAKKVA [P0A9T6] | 5.02 ± 0.066 | 3.95 ± 0.23 | 0.853 | 0.94 | 0.895 ± 0.037 | 0.871 ± 0.018 | 0.977 ± 0.032 | 1.53 | 1.08 | 1.08 | 0.994 ± 0.08 | 1.7 ± 0.7
MKQDLARIEQFLDALWLEKNLAENTLNAYRRDLSMMVEWLHHRGLTLATAQSDDLQALLAERLEGGYKATSSARLLSAVRRLFQYLYREKFREDDPSAHLASPKLPQRLPKDLSEAQVERLLQAPLIDQPLELRDKAMLEVLYATGLRVSELVGLTMSDISLRQGVVRVIGKGNKERLVPLGEEAVYWLETYLEHGRPWLLNGVSIDVLFPSQRAQQMTRQTFWHRIKHYAVLAGIDSEKLSPHVLRHAFATHLLNHGADLRVVQMLLGHSDLSTTQIYTHVATERLRQLHQQHHPRA [P0A8P8] | 5.75 ± 1.2 | 2.02 ± 0.045 | 2.06 | 4.89 ± 0.092 | 2.04 ± 0.034 | 1.74 ± 0.27 | 3.04 ± 0.085 | 4.08 ± 0.66 | 2.31 ± 0.2 | 3.34 ± 0.29 |  | 2.81
MKQEVILVLDCGATNVRAIAVNRQGKIVARASTPNASDIAMENNTWHQWSLDAILQRFADCCRQINSELTECHIRGIAVTTFGVDGALVDKQGNLLYPIISWKCPRTAAVMDNIERLISAQRLQAISGVGAFSFNTLYKLVWLKENHPQLLERAHAWLFISSLINHRLTGEFTTDITMAGTSQMLDIQQRDFSPQILQATGIPRRLFPRLVEAGEQIGTLQNSAAAMLGLPVGIPVISAGHDTQFALFGAGAEQNEPVLSSGTWEILMVRSAQVDTSLLSQYAGSTCELDSQAGLYNPGMQWLASGVLEWVRKLFWTAETPWQMLIEEARLIAPGADGVKMQCDLLSCQNAGWQGVTLNTTRGHFYRAALEGLTAQLQRNLQMLEKIGHFKASELLLVGGGSRNTLWNQIKANMLDIPVKVLDDAETTVAGAALFGWYGVGEFNSPEEARAQIHYQYRYFYPQTEPEFIEEV | 5.11 | 3.99 ± 0.14 |  |  |  | 0.905 ± 0.18 | 2.56 | 1.49 |  |  |  | 
MKQIRLLAQYYVDLMMKLGLVRFSMLLALALVVLAIVVQMAVTMVLHGQVESIDVIRSIFFGLLITPWAVYFLSVVVEQLEESRQRLSRLVQKLEEMRERDLSLNVQLKDNIAQLNQEIAVREKAEAELQETFGQLKIEIKEREETQIQLEQQSSFLRSFLDASPDLVFYRNEDKEFSGCNRAMELLTGKSEKQLVHLKPADVYSPEAAAKVIETDEKVFRHNVSLTYEQWLDYPDGRKACFEIRKVPYYDRVGKRHGLMGFGRDITERKRYQDALERASRDKTTFISTISHELRTPLNGIVGLSRILLDTELTAEQEKYLKTIHVSAVTLGNIFNDIIDMDKMERRKVQLDNQPVDFTSFLADLENLSALQAQQKGLRFNLEPTLPLPHQVITDGTRLRQILWNLISNAVKFTQQGQVTVRVRYDEGDMLHFEVEDSGIGIPQDELDKIFAMYYQVKDSHGGKPATGTGIGLAVSRRLAKNMGGDITVTSEQGKGSTFTLTIHAPSVAEEVDDAFDEDDMPLPALNVLLVEDIELNVIVARSVLEKLGNSVDVAMTGKAALEMFKPGEYDLVLLDIQLPDMTGLDISRELTKRYPREDLPPLVALTANVLKDKQEYLNAGMDDVLSKPLSVPALTAMIKKFWDTQDDEESTVTTEENSKSEALLDIPMLEQYLELVGPKLITDGLAVFEKMMPGYVSVLESNLTAQDKKGIVEEGHKIKGAAGSVGLRHLQQLGQQIQSPDLPAWEDNVGEWIEEMKEEWRHDVEVLKAWVAKATKK [P0AEC3] | 5.863 ± 0.04 | 6.27 ± 0.077 | 5.797 ± 0.042 | 5.21 ± 0.38 | 5.568 ± 0.012 | 3.09 ± 0.14 | 5.88 ± 0.086 | 10.9 ± 0.17 | 5.54 ± 0.18 | 10.5 ± 1 | 5.69 ± 0.2 | 11.4 ± 0.22
MKQLWFAMSLVTGSLLFSANASATPASGALLQQMNLASQSLNYELSFISINKQGVESLRYRHARLDNRPLAQLLQMDGPRREVVQRGNEISYFEPGLEPFTLNGDYIVDSLPSLIYTDFKRLSPYYDFISVGRTRIADRLCEVIRVVARDGTRYSYIVWMDTESKLPMRVDLLDRDGETLEQFRVIAFNVNQDISSSMQTLAKANLPPLLSVPVGEKAKFSWTPTWLPQGFSEVSSSRRPLPTMDNMPIESRLYSDGLFSFSVNVNRATPSSTDQMLRTGRRTVSTSVRDNAEITIVGELPPQTAKRIAENIKFGAAQ [P0AFX9] |  | 6.16 ± 0.25 | 6.13 ± 0.069 | 5.896 ± 0.045 | 5.8 ± 0.49 | 2.96 ± 0.22 | 6.16 ± 0.61 | 10.4 ± 0.19 | 6.73 ± 0.14 | 13.2 ± 1.5 | 5.88 ± 0.69 | 12 ± 0.74
MKQPAPVYQRIAGHQWRHIWLSGDIHGCLEQLRRKLWHCRFDPWRDLLISVGDVIDRGPQSLRCLQLLEQHWVCAVRGNHEQMAMDALASQQMSLWLMNGGDWFIALADNQQKQAKTALEKCQHLPFILEVHSRTGKHVIAHADYPDDVYEWQKDVDLHQVLWSRSRLGERQKGQGITGADHFWFGHTPLRHRVDIGNLHYIDTGAVFGGELTLVQLQ |  |  |  |  |  |  |  |  |  |  |  | 5.48
